Measurements taken from the supplement of paper PMC10567573.

B1: DYRK1B (parent)
chain: ARKYFERLPGGGWTLRRTKELRKD
B2: OR3A1 (parent)
chain: PMYFFLGNLSVLDVGCISVTVPSM

Variants of: B1
Assay: protein stability index of a GFP-peptide fusion (GPS, HEK-293T) (PSI 1-6); higher = more stable
Conditions: c terminus: a fixed tail appended
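Note: lentivirally expressed fusions sorted by FACS into six bins by GFP to DsRed ratio, PSI derived from sequencing read proportions per bin multiplied by bin number.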

Variant | protein stability index
L8R | 3.25
L8S | 5.45
L8T | 4.18
L8V | 3.84
L8W | 2.13
L8Y | 4.07
P9A | 2.83
P9C | 1.91
P9D | 4.24
P9E | 3.41
P9F | 1.87
P9H | 2.48
P9I | 2.13
P9K | 2.5
P9L | 2.43
P9N | 1.97
P9Q | 3.67
P9R | 3.22
P9T | 3.02
P9V | 2.96
P9W | 2.11
P9Y | 1.9
G10A | 2.93
G10D | 4.16
G10F | 2.63

Variant | protein stability index
G10I | 2.38
G10M | 3.27
G10N | 4.09
G10R | 3.75
G10S | 3.19
G10T | 3.19
G10V | 3.45
G10W | 2.97
G10Y | 2.35
G11C | 3.26
G11D | 2.93
G11F | 2.89
G11H | 2.4
G11I | 2.79
G11K | 2.06
G11L | 3.11
G11M | 2.78
G11N | 3.17
G11P | 2.74
G11Q | 3.34
G11S | 2.49
G11T | 3.46
G11V | 2.48
G11W | 2.82
G11Y | 2.73

Variant | protein stability index
G12A | 3.06
G12D | 4.15
G12E | 3.02
G12F | 2.93
G12H | 3.85
G12I | 2.03
G12K | 3.81
G12L | 2.57
G12M | 2.95
G12N | 2
G12P | 2.96
G12Q | 2.95
G12S | 3.11
G12T | 2.98
G12V | 2.15
G12Y | 2.42
W13A | 3.72
W13C | 4.61
W13D | 3.59
W13E | 4.05
W13F | 3.47
W13G | 5.15
W13H | 2.52
W13I | 3.31
W13K | 3.77

Variant | protein stability index
W13L | 3.54
W13M | 3.54
W13N | 3.95
W13P | 4.18
W13R | 3.3
W13T | 3.36
W13V | 3.07
T14F | 2.36
T14K | 3.34
T14P | 2.52
T14Q | 2.9
T14R | 2.33
T14S | 3.34
T14V | 2.91
T14W | 2.72
T14Y | 3.01
L15A | 3.78
L15C | 3.29
L15D | 2.88
L15H | 3.85
L15I | 3.22
L15K | 3.15
L15M | 3.25
L15N | 2.95
L15P | 2.7

Variant | protein stability index
L15Q | 3.65
L15R | 3.34
L15T | 3.35
L15V | 4.02
L15Y | 3.73
R16F | 1.69
R16G | 3.66
R16H | 2.44
R16I | 2.99
R16K | 3.48
R16L | 2.79
R16M | 1.97
R16P | 3.73
R16S | 3.17
R16T | 3.5
R16V | 4.2
R16Y | 1.45
R17C | 2.84
R17D | 3.54
R17E | 3.46
R17F | 2.58
R17G | 3.6
R17H | 3.2
R17I | 2.03
R17K | 2.69

Variant | protein stability index
R17L | 2.43
R17M | 2.38
R17N | 3.22
R17P | 2.75
R17Q | 2.83
R17S | 3.35
R17V | 2.07
R17W | 2.35
R17Y | 3.02
T18D | 4.05
T18I | 3.93
T18L | 1.73
T18M | 3.88
T18P | 3.57
T18R | 3.72
T18V | 3.69
T18Y | 2.26
K19D | 4.88
K19F | 3.01
K19H | 3.08
K19I | 2.87
K19M | 2.73
K19P | 3.97
K19S | 3.82
K19T | 3.41

Variant | protein stability index
K19W | 2.35
K19Y | 3.25
E20A | 4.5
E20C | 3.69
E20D | 3.65
E20F | 3.57
E20G | 4.17
E20H | 1.79
E20I | 2.04
E20K | 2.89
E20L | 3.23
E20M | 3.38
E20N | 3.14
E20Q | 3.26
E20R | 3.3
E20S | 3.34
E20T | 3.27
E20V | 3.47
E20W | 2.76
E20Y | 3.6
L21C | 4.41
L21E | 4.62
L21G | 3.95
L21H | 3.95
L21I | 3.44

Variant | protein stability index
L21K | 3.73
L21P | 3.26
L21Q | 3.88
L21S | 4.45
L21V | 3.7
L21W | 3.76
R22A | 4.14
R22E | 4.04
R22F | 3.59
R22G | 4.3
R22H | 3.5
R22K | 3.36
R22L | 2.59
R22M | 3.88
R22N | 3.97
R22P | 3.48
R22Q | 3.9
R22T | 4.19
R22Y | 1.88
K23D | 2.72
K23H | 3.33
K23I | 2.58
K23L | 2.81
K23N | 3.34
K23P | 3.1

Variant | protein stability index
K23Q | 2.83
K23T | 3.14
K23V | 3.18
K23Y | 3.07
D24A | 3.75
D24C | 2.7
D24E | 3.63
D24F | 2.3
D24G | 3.24
D24H | 2.54
D24I | 3.82
D24K | 3.07
D24L | 2.58
D24Q | 3.68
D24R | 3
D24T | 3.36
D24W | 1.91

Variants of: B2
Assay: as above
Conditions: c terminus: a fixed tail appended

Variant | protein stability index
P1A | 2.23
P1C | 2.46
P1E | 2.01
P1H | 2.79
P1I | 2.88
P1L | 4.36
P1N | 3.87
P1Q | 3.32
P1R | 3.81
P1S | 2.89
P1T | 2.16
P1Y | 2.1
M2E | 2.1
M2G | 2.32
M2H | 2.67
M2I | 2.31
M2K | 3.24
M2L | 4.31
M2T | 2.15
Y3C | 4.31
Y3F | 2.74
Y3G | 2.22
Y3H | 3.35
Y3M | 2.3

Variant | protein stability index
Y3N | 2.37
Y3T | 4.47
Y3V | 4.51
F4D | 2.63
F4K | 1.52
F4M | 4.21
F4P | 3.27
F4R | 2.19
F4S | 1.91
F4T | 1.26
F5D | 2.06
F5E | 1.46
F5G | 1.83
F5H | 2.64
F5N | 2.82
F5P | 1.79
F5S | 3.9
F5V | 2.3
L6A | 2.24
L6D | 1.08
L6E | 2.34
L6M | 1.6
L6P | 1.62
L6Q | 2.67

Variant | protein stability index
L6T | 2.21
L6V | 2.32
G7A | 3.1
G7E | 3.86
G7F | 3.9
G7H | 1.39
G7K | 2.05
G7N | 1.99
G7Q | 2.31
G7S | 2.72
G7T | 2.84
G7Y | 2.69
N8F | 2.06
N8G | 2.71
N8P | 2.27
N8W | 3.59
L9A | 2.42
L9C | 3.93
L9D | 2
L9E | 3.5
L9K | 2.86
L9Q | 1.96
L9R | 3.52
L9S | 1.99

Variant | protein stability index
L9T | 2.59
S10C | 2.81
S10E | 3.25
S10F | 3.53
S10K | 3.48
S10L | 2.05
S10M | 3.29
S10Q | 1.03
S10R | 2.27
S10W | 3.31
S10Y | 3.38
V11D | 3.12
V11E | 3.18
V11F | 3.67
V11G | 2.77
V11I | 3.56
V11L | 2.58
V11N | 2.23
V11Q | 2.65
V11R | 3.13
V11S | 3.56
V11T | 2.86
V11Y | 2.86
L12A | 2.37

Variant | protein stability index
L12C | 2.83
L12D | 3.05
L12E | 1.85
L12F | 2.22
L12G | 2.35
L12H | 2.78
L12I | 3.78
L12M | 1.62
L12N | 1.49
L12S | 1.53
L12T | 4.2
L12Y | 3.05
D13C | 4.05
D13E | 3.63
D13F | 3.38
D13G | 2.55
D13I | 3.37
D13K | 2.74
D13L | 3.26
D13M | 2.35
D13N | 2.1
